Measurements: patent publication US20180044401A1

Columns and labels:
[1] = target: IgG-Fc of anti-TNFα monoclonal antibody (Remicade); assay: SPR Biacore, Fc immobilized at about 10000 RU, response 1 minute after addition
[2] = target: IgG-Fab prepared from anti-TNFα monoclonal antibody (Remicade); assay: SPR Biacore, Fab immobilized at about 10000 RU, response 1 minute after addition

inclination of approximate curve (binding response against peptide concentration) [1]: 0.9
inclination of approximate curve (binding response against peptide concentration) [2]: 0.1
Substance: peptide having the amino acid sequence of β1 domain of Protein G (SEQ ID NO: 32) (from UniProt P06654 228-282)
